Source: US20240254201A1 (ACADEMY OF MILITARY MEDICAL SCIENCE PLA, published 2024)

Columns and labels:
sGP = biological target: T1, sGP (Ebola virus (EBOV), UniProt P60170 33-324); test: ELISA on coated truncated GP
T1 construct: also called secreted glycoprotein

SUDV GP = biological target: T2, SUDV GP (Sudan ebolavirus (SUDV), UniProt Q7T9D9 33-637); test: ELISA, purified antibody on coated GP (1 µg/mL)
T2 construct: also called Sudan ebolavirus GP
T2 sequence: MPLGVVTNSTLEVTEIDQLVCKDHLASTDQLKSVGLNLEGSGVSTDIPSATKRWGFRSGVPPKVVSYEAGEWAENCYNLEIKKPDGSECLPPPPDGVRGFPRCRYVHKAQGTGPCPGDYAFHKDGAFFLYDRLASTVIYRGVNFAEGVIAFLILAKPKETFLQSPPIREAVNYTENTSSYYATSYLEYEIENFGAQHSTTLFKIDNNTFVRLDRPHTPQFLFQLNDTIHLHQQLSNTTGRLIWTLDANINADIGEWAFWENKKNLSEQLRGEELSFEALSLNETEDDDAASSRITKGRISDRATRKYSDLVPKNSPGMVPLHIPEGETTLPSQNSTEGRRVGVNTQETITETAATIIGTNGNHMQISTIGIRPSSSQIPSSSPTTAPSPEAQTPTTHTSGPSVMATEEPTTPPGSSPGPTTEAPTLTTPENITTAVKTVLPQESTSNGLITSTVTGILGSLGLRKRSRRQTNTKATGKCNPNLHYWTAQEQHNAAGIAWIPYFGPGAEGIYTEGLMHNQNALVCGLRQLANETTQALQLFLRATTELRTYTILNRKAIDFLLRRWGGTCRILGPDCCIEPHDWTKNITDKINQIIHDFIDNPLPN

RESTV GP = biological target: T3, RESTV GP (RESTV, UniProt Q66799 34-638); test: ELISA, purified antibody on coated GP (1 µg/mL)
T3 sequence: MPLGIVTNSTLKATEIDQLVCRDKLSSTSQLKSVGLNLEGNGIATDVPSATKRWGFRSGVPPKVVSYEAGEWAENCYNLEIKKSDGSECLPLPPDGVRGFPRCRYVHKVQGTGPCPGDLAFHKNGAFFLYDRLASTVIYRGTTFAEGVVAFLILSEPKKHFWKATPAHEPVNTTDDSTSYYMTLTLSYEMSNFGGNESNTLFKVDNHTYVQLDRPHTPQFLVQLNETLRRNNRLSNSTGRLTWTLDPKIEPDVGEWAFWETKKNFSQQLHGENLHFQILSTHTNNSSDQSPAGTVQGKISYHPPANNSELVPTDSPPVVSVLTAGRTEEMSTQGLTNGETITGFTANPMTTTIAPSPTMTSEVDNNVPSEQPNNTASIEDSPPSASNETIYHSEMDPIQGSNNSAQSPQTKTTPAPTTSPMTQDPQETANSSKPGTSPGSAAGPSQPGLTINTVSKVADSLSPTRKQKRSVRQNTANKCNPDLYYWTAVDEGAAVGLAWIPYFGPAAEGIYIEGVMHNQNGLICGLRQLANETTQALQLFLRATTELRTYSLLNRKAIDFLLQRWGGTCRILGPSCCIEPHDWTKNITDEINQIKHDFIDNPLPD

[1] = biological target: T4, EBOV GP on EBOV-eGFP-Mayinga authentic virus (Ebola virus (EBOV), Mayinga, UniProt Q05320 33-676); test: cell-based or functional assay
T4 sequence: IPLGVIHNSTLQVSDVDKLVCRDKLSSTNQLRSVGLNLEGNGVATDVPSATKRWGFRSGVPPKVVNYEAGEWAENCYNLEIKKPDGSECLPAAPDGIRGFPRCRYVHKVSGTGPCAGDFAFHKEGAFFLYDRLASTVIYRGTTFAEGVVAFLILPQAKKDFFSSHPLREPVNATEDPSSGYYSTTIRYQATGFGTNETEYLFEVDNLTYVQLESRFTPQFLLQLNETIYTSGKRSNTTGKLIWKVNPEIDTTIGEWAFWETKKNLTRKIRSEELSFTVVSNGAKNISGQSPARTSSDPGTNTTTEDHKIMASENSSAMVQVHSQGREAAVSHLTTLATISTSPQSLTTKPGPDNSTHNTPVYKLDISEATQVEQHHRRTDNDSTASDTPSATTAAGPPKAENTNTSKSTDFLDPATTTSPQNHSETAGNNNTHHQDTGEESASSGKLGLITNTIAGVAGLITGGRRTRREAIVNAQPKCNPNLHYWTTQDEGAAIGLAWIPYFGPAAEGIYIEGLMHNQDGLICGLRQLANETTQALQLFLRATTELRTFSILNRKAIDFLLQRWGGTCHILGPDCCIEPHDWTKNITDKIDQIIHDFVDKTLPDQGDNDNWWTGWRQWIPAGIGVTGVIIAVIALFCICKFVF

B1: monoclonal antibody 2G1 (antibody, V domains shown)
VH: EVQLVESGGGLVKRGGSLRLSCVVSGYTFGGYSMHWVRQAPGKGLEWVSGISSSSYYKYYADSVKGRFTISRDNAKNSLYLQMNSLRAEDTAVYYCARDMGYCSGGSCPNFDFWGQGTTVTVSS
VL: DIQMTQSPSSLSASVGDRVTITCRTSQSISNYLNWYQQIPGKAPKLLISTASNLHSGVSSRFSGSGSGTHFTLTISSLQPEDFATYYCQQSYSTPSFGQGTKVEIKR
notes: also called 2G1-WT; wild-type 2G1
- binding result (sGP): no binding
- EC50 (SUDV GP): 0.0048 µg/mL
- EC50 (RESTV GP): 0.026 µg/mL

B2: MIL77-1 (antibody, V domains shown)
VH: EVALEESGGGLMQPGGSMKLSCVASGFTFSNYWMNWVRQSPEKGLEWVAEIRLKSNNYATHYAESVKGRFTISRDDSKRSVYLQMNTLRAEDTGIYYCTRGNGNYRAMDYWGQGTSVTVSS
VL: DIQMTQSPASLSVSVGETVSITCRASENIYSSLAWYQQKQGKSPQLLVYSATILADGVPSRFSGSGSGTQYSLKINSLQSEDFGTYYCQHFWGTPYTFGGGTKLEIKR
- IC50, EBOV-eGFP-Mayinga authentic virus neutralization test [1]: 3.12 µg/mL
